{
  "source": "paper PMC11616081",
  "about": "“Structural basis of archaeal FttA-dependent transcription termination” (Nature, 2024)",
  "binders": {"B1": {"name": "Tko FttA(H255A/H591A) (enzyme, Thermococcus kodakarensis)", "chain": "MIRRETFVDDILKEIREIIVQMVPREAGITDVEFEGPELVIYVKNPEAMMKDGELIKNLAKVLKKRISVRPDPDILLPPEKAEELIKQLVPPEAEITNISFDPSVGEVLIEARKPGLVIGKNGETLRLITQKVHWAPRVVRTPPIQSQTIYSIRSILQTESKDRRKFLRQVGRNIYRKSEYKSRWIRITGLGGFREVGRSALLVQTDESYVLVDFGVNIAALKDPTKAYPHFDAPEFRYVLDEGLLDAIIITHAALDHSGMLPYLFRYKLFDGPIYTTPPTRDLMTLLQQDFIEIQHMNGVEPLYRPKDIKEVIKHTITLDYGEVRDIAPDIRLTLHNAGHILGSSIVHLHIGNGLHNIAITGDFKFIPTRLFEPAVSRFPRLETLVMESTYGGSNDYQMPREEAEKRLIEVIHQTLKRGGKVLIPAMAVGRAQEIMMVLEEYARVGGIEVPIYLDGMIWEATAIHTAYPEYLSKHIREQIFHEGYNPFLNPIFKSVANSRERQDIIDSGEPAIIIATSGMLVGGPSVEYFKQLAPDPKNSIIFVSYQAEGTLGRQVQRGLREIPIVGEDGRTEVINVNMEVHTIDGFSGAADRRELMSYVARVRPRPERIITVHGEAHKCLDLSSSIHKKFGISTRAPNNLDAIRLK", "notes": "FttA (aCPSF, aCPSF1), Thermococcus kodakarensis; domains KH1 6-75, KH2 76-144, MβLa 198-428, βCASP 433-557, MβLb 576-639; residues 1-3 of FttA^prox not fitted in the map; Dimer in the structure (protomers FttA^prox and FttA^dist); also called FttA^prox; FttA^dist"}, "B2": {"name": "Tko Spt5 (natural protein, Thermococcus kodakarensis)", "chain": "MAEGKIFTVSVTVGQETTTANLIYSKAKTYNLPLYAILSPSKVKGYIFIEAPNKSAVEEAIRGIRHAKRVLPGEIPFSEIEHFLEEKPAVSGFEPGDIVELIAGPFKGEKAKVVRVDESKDEIVVELVSSVVPIPVTVRGEYVRLISKRQKE", "notes": "Spt5, Thermococcus kodakarensis; NGN domain and KOW domain; residues 1-3 not fitted in the map; Used as Spt4/5 (Spt4-Spt5 complex) in the biochemical assays; also called NusG/Spt5"}, "B3": {"name": "Tko Spt4 (natural protein, Thermococcus kodakarensis)", "chain": "MAKERACRHCHYITTEDRCPVCGSRDLSDDWFDLVIVLDVESRIAKKLRESIPEAAKVPGKYAIRVR", "notes": "Spt4, Thermococcus kodakarensis; residues 1-3 not fitted in the map"}},
  "test_in_all_cases": "cryo-EM structure; 4 μM Tko RNAP, 8 μM Spt4, 8 μM Spt5 and 5 μM nucleic acid scaffold (TEC[44] or TEC[52]) in 20 mM HEPES-NaOH pH 7.5, 30 mM KCl, 10 mM magnesium acetate, 1 mM dithiothreitol, 10 min at 22 °C; then FttA(H255A/H591A) added, 10 min at 22 °C and 5 min at 42 °C; CHAPSO added before freezing; single-particle reconstruction at 2.5 Å (TEC[44]) and 2.2 Å (TEC[52])",
  "key": {"[1]": {"biological_target": "the molecule itself"}, "Tko FttA(H255A/H591A)": {"biological_target": "B1", "conditions": "both partners purified"}, "Tko Spt5": {"biological_target": "B2", "conditions": "both partners purified"}},
  "data": [
    {"binder": "B1", "values": [
      {"measurement": "stoichiometry N", "setting": "[1]", "result": 2}
    ]},
    {"binder": "B2", "values": [
      {"measurement": "binding result", "setting": "Tko FttA(H255A/H591A)", "result": "binds"}
    ]},
    {"binder": "B3", "values": [
      {"measurement": "binding result", "setting": "Tko Spt5", "result": "binds"}
    ]}
  ]
}
